Experimental data published in paper PMC6271572, “One-step affinity purification of fusion proteins with optimal monodispersity and biological activity: application to aggregation-prone HPV E6 proteins” (Microbial Cell Factories, 2018).
“And” between values parts separate entries of the source, which are not always exact repeats. Equal values may be shown once.

Key:
[1] = target: E6APwt, 16-mer LXXLL motif peptide of E6AP; assay: SPR; Biacore T200, 25 °C; biotinylated peptide reversibly captured on CAP chip (Biotin CAPture kit), MBP-E6 as analyte in two-fold dilutions from 10 µM; Tris 50 mM pH 8, NaCl 400 mM, DTT 2 mM, 0.005% polysorbate 20; steady-state analysis, 1:1 model; protein samples purified on resin N1 or N2
[2] = target: E6AP LXXLL motif (Homo sapiens) (UniProt Q05086); assay: SPR; settings: cited from earlier work
[3] = target: the molecule itself; assay: SEC; analytical SEC on Superdex 200 Increase 5/150 GL in Buffer A (Tris 50 mM pH 8, NaCl 400 mM, DTT 2 mM), A280; monomer and oligomer peaks assigned by column calibration; samples from different resins, elution methods and contact times

With “MBP-fused HPV16 E6 F47R 4C/4S (natural protein)” the Kd [1] was 1600 nM and 2000 nM.

For HPV16 E6 (from UniProt P03126), the Kd [2] is listed as 4150 nM.

B1: MBP-fused HPV8 E6 (natural protein)
chain: MDGQDKASNLDTNKDELPSTIKELAEALGIPLQDCLVPCNFCGNFLDFLELCEFDKKRLCLIWKNYVVTACCRCCCVATATFEFNEYYEQTVLGRDIELATGRSIFEIDVRCQNCLSFLDIIEKLDCCGRGRPFHKVRGGWKGVCRLCKHLYHDW
notes: Printed order of the fusion: MBP-6His-TEV site-E6 (vector pETM-41, NcoI/Acc65I sites); tags were not cleaved off; Expected MW 60.9 kDa; also called MBP-8E6; not shown: MBP, N-terminal, kept
B1: binds [3].
